The text below walks through data of publication PMC12098916, “Modelling POLG mutations in mice unravels a critical role of POLγΒ in regulating phenotypic severity”.

The target of series [1] is mouse DNA polymerase γ catalytic subunit, wild type (mPolγA^WT) (mouse) (UniProt P54099). The series is described as follows: thermal shift assay (thermofluor, SYPRO Orange); 0.5 µM PolγA with or without 0.75 µM PolγB (1:1.5), mixed on ice for 5 min; 20 mM Tris pH 8, 1 mM DTT, final NaCl 175 ± 50 mM; 4 to 95 °C in steps of 0.5 °C. In general terms: Differential scanning fluorimetry follows unfolding on heating by fluorescence.
Sequence of mouse DNA polymerase γ catalytic subunit, wild type (mPolγA^WT) (mouse) (P54099 whole entry): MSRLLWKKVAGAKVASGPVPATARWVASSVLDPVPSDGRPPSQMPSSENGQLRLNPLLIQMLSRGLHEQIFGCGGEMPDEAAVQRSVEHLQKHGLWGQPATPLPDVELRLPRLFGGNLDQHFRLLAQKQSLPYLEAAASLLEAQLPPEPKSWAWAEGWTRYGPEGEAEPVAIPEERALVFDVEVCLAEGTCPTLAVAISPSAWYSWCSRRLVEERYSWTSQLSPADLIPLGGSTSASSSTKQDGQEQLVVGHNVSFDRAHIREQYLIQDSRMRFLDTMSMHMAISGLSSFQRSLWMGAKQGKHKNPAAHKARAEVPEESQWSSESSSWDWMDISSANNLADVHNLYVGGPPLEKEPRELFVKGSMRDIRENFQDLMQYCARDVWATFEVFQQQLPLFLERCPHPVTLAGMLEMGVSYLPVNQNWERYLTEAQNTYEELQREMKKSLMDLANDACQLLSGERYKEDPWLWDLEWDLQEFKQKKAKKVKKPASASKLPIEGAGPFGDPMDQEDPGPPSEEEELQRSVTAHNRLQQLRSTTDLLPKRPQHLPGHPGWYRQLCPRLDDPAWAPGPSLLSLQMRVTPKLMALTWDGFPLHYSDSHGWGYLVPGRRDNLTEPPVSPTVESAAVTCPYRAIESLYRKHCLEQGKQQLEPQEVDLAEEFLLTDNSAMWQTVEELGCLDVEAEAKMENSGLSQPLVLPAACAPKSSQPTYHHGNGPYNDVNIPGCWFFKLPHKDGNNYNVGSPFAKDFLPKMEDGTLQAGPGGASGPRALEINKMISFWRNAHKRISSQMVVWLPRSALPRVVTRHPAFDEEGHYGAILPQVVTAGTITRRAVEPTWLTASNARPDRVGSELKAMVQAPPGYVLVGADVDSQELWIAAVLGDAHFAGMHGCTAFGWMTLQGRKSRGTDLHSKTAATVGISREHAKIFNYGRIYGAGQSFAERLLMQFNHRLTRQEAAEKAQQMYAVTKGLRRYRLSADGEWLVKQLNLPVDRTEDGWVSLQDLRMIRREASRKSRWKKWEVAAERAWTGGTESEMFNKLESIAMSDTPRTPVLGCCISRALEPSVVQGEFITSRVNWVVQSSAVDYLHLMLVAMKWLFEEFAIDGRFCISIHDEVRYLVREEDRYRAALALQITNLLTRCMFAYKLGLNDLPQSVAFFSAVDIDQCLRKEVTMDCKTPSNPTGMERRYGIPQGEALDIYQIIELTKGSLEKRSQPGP

Series [2] concerns the target mouse DNA polymerase γ catalytic subunit, Y933C variant (mPolγA^Y933C) (mouse) (UniProt P54099). The description is as above.
Series [3] has as its target human POLγA (hPOLγA WT);human POLγB (hPOLγB) (Homo sapiens;Homo sapiens, UniProt P54098;Q9UHN1 26-1239;26-485, |). The series is described as follows: EMSA; 10 uM ddCTP; value in Supp Fig 13f not in material; EMSA: 25 mM Tris-HCl pH 8.0, ~30 mM NaCl, 1 mM TCEP, 0.1 mg/ml BSA, 10% glycerol, 10 uM ddCTP, 0.5 nM DNA, 6.6 nM POLγB dimer, ice 10 min then room temperature. Particulars: protein: recombinant;recombinant; tags: 6xHis;6xHis; copies: 1;2; label: 32P 5' on 21-mer; 21 bp, 15 nt 5' overhang on strand 1.

For series [4], the target named is T1, mouse PolγA (mPolγA WT);mouse PolγB (mPolγB) (Mus musculus;Mus musculus, UniProt P54099;Q9QZM2 26-1218;1-459, |). The experiment in a line: EMSA; 10 uM ddCTP; value in Supp Fig 13f not in material; marginally weaker than human; EMSA: 25 mM Tris-HCl pH 8.0, ~30 mM NaCl, 1 mM TCEP, 0.1 mg/ml BSA, 10% glycerol, 10 uM ddCTP, 0.5 nM DNA, 6.6 nM POLγB dimer, ice 10 min then room temperature. Conditions: protein: recombinant;recombinant; tags: 6xHis;6xHis; copies: 1;2; label: 32P 5' on 21-mer; 21 bp, 15 nt 5' overhang on strand 1. (In EMSA bound probe runs differently from free probe, usually more slowly.)
T1 sequence (P54099 26-1218, chain 1 of 2): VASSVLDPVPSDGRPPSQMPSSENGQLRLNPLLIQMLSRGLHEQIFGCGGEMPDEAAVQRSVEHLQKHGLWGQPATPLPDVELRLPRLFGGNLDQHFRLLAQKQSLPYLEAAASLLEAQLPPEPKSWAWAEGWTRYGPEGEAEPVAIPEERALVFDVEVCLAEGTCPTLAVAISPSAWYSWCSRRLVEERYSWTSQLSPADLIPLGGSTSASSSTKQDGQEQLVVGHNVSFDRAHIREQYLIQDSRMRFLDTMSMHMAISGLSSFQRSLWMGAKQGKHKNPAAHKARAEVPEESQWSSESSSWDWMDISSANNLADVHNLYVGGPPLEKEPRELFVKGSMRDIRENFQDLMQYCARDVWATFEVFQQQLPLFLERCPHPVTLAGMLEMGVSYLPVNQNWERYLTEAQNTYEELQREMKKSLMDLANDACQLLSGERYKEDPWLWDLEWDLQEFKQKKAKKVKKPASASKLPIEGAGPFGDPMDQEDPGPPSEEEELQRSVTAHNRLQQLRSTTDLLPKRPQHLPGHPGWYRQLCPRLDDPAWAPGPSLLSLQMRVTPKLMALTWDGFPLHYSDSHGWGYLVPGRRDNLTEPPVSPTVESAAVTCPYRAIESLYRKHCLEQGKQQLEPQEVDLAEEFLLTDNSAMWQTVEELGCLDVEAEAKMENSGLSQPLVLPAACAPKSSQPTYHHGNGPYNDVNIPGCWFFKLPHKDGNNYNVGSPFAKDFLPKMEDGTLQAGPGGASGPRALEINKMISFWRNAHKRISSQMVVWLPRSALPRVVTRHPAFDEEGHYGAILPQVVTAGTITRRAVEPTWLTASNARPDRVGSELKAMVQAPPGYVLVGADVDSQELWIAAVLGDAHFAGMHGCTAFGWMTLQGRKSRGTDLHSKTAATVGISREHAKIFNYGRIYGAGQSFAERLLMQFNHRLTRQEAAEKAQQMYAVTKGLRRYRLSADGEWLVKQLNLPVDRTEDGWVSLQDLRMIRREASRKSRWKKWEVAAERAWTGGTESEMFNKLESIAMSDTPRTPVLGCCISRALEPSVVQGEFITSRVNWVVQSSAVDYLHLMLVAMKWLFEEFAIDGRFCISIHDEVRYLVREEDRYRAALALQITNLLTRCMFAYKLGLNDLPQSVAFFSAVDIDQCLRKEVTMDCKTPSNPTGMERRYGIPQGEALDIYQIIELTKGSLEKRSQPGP
T1 sequence (Q9QZM2 whole entry, chain 2 of 2): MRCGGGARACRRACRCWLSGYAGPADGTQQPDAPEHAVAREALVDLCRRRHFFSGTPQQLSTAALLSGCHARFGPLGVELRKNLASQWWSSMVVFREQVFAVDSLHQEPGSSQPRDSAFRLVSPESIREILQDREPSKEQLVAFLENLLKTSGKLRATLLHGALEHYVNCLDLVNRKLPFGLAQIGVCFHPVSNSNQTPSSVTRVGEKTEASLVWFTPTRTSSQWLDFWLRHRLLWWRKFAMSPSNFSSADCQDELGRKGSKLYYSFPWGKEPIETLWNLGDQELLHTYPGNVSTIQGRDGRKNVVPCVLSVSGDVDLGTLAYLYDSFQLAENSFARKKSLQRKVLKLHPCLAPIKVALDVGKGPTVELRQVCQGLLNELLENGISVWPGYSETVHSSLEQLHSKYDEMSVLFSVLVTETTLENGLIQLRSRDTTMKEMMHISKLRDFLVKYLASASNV

Series [5] addresses mouse PolγA (mPolγA WT);human POLγB (hPOLγB) (Mus musculus;Homo sapiens, UniProt P54099;Q9UHN1 26-1218;26-485, |). The experiment in a line: cryo-EM; chimera mAhB, human-like E conformer; 10 mM Ca2+, 0.2 mM dCTP; EMSA: 25 mM Tris-HCl pH 8.0, ~30 mM NaCl, 1 mM TCEP, 0.1 mg/ml BSA, 10% glycerol, 10 uM ddCTP, 0.5 nM DNA, 6.6 nM POLγB dimer, ice 10 min then room temperature. Particulars: protein: recombinant;recombinant; tags: 6xHis;6xHis; copies: 1;2; 15 nt 5' overhang on strand 1; single mismatch at primer 3' end.

Series [6] deals with T1, mouse PolγA (mPolγA WT);mouse PolγB …. The experiment in a line: cryo-EM; R (replication) conformer; 10 mM Ca2+, 0.2 mM dCTP; EMSA: 25 mM Tris-HCl pH 8.0, ~30 mM NaCl, 1 mM TCEP, 0.1 mg/ml BSA, 10% glycerol, 10 uM ddCTP, 0.5 nM DNA, 6.6 nM POLγB dimer, ice 10 min then room temperature. Conditions: protein: recombinant;recombinant; tags: 6xHis;6xHis; copies: 1;2; 15 nt 5' overhang on strand 1; single mismatch at primer 3' end.

Sequence of human POLγA (hPOLγA WT);human POLγB (hPOLγB) (P54098 26-1239, chain 1 of 2): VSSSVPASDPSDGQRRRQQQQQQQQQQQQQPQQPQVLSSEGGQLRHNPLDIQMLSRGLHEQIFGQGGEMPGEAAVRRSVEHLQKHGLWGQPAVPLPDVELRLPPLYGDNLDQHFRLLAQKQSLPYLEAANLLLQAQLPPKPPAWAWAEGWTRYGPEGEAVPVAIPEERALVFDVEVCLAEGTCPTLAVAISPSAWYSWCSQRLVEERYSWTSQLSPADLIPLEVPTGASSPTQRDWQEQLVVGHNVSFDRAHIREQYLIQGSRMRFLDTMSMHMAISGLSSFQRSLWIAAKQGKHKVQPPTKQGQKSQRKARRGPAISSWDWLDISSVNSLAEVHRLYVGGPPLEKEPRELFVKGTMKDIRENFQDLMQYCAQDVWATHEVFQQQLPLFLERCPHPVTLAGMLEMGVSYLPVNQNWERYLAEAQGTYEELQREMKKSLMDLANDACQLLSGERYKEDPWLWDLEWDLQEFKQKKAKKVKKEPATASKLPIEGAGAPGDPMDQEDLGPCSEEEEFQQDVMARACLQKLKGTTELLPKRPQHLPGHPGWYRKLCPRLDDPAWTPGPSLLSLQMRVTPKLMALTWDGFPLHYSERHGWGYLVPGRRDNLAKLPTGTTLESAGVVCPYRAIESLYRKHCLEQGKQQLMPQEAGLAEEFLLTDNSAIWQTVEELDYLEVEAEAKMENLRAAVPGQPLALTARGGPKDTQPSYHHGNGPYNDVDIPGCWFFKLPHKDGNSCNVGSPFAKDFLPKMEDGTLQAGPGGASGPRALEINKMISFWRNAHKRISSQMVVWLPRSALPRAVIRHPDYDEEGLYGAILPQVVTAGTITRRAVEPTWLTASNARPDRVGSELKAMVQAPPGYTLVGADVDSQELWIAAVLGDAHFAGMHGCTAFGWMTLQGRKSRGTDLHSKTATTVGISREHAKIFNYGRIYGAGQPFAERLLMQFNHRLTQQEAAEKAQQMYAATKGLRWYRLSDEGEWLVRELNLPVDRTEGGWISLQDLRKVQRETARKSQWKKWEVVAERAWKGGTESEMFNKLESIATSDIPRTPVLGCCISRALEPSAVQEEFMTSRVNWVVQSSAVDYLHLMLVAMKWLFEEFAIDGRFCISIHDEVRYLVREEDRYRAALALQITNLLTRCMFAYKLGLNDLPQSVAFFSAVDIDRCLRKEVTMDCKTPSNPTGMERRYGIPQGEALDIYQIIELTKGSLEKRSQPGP
Sequence of human POLγA (hPOLγA WT);human POLγB (hPOLγB) (Q9UHN1 26-485, chain 2 of 2): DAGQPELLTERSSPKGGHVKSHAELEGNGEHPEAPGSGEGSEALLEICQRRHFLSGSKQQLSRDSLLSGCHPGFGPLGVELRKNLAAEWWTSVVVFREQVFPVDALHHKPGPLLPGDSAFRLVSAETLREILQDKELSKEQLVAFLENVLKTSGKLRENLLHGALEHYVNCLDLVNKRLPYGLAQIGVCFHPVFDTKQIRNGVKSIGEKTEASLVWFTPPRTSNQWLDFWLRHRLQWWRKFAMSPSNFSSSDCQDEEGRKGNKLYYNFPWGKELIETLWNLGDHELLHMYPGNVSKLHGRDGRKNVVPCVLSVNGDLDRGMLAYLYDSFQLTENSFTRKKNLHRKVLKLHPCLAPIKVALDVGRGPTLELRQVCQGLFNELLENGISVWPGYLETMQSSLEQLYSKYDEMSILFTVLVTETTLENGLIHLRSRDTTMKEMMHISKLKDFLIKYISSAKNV
Sequence of mouse DNA polymerase γ catalytic subunit, Y933C variant (mPolγA^Y933C) (mouse) (P54099 whole entry Y934C): as the sequence (P54099 whole entry) above, with Y934C counted along it
Sequence of mouse PolγA (mPolγA WT);human POLγB (hPOLγB) (P54099 26-1218, chain 1 of 2): as the sequence (P54099 26-1218, chain 1 of 2) above
Sequence of mouse PolγA (mPolγA WT);human POLγB (hPOLγB) (Q9UHN1 26-485, chain 2 of 2): as the sequence (Q9UHN1 26-485, chain 2 of 2) above

Turning to “mouse DNA polymerase γ accessory subunit, wild type (mPolγB^WT)”, the increase in Tm of PolγA in complex with PolγB in series [1] was 9 °C. “mouse DNA polymerase γ accessory subunit, wild type (mPolγB^WT) (natural protein)”: the increase in Tm of PolγA in complex with PolγB in series [2] came to 9 °C.

B1: EMSA primer-template 36/21 (dsDNA)
DNA 1: TTTTTTTTTTATCCGGGCTCCTCTAGACTCGACCGC
DNA 2: GCGGTCGAGTCTAGAGGAGCC
Turning to B1, the binding result in series [3] and in series [4] was “binds” in each case.

B2: cryo-EM primer-template 40/25 with 3' mismatch (dsDNA)
DNA 1: TTTTTTTTTTATCCGGGCTCCTCTAGACTCGACCGCATGC
DNA 2: GCATGCGGTCGAGTCTAGAGGAGCT
Regarding B2, the binding result in series [5] and in series [6] was “binds” each time.
